Target: Recombinant SCY2 (Scylla paramamosain)
Assay: SPR; Biacore T200, CM5 chip; rSCY2 immobilised (~1,000 RU); rScyreprocin 12.5-400 nM flowed over; multiple cycle kinetics, 25°C, 30 μl/min, HEPES-buffered saline

His-tagged scyreprocin (rScyreprocin) (natural protein)
Kd: 20.8 nM

Reference: article PMC7396596
